Experimental data from paper PMC2780581 (Biochemistry, 2008).

Biological target: the molecule itself
Experiment: SEC

B1: (S)-2-hydroxypropylphosphonic acid epoxidase from Pseudomonas syringae (enzyme, Pseudomonas syringae PB-5123, UniProt Q9JN69 1-190, looked up)
chain: MDVRTLAVGKAHLEALLATRKMTLEHLQDVRHDATQVYFDGLEHLQNVAQYLAIPLSEFFVGQTQSDLDDGVKIARRNGGFKREEIRGGVHYYTYEHLVTTNQDPGLMALRLDLHSDDEQPLRLNGGHGSREIVYVTRGAVRVRWVGDNDELKEDVLNEGDSIFILPNVPHSFTNHVGGAKSEIIAINYG
modifications: Tyr95 highly likely post-translationally hydroxylated to DOPA
With B1 the “stoichiometry N” value was 3.
